# T1: biotinylated extracellular domain of human CD123 (SEQ ID NO: 88), Fc and Avi tagged (human, UniProt P26951 19-303, biotinylated with BirA-GST (Avi tag))
# T1 construct: also called hCD123
# T1 sequence: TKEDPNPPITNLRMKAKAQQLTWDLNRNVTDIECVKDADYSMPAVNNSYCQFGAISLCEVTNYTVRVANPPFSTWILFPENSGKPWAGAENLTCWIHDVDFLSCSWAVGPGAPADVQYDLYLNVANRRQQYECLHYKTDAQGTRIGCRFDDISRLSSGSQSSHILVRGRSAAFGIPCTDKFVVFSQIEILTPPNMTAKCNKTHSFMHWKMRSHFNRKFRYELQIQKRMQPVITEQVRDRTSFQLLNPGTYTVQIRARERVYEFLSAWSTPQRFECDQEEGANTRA
# T2: extracellular domain of human CD70 (SEQ ID NO: 89), hCD70-Fc-trimer, ACRO Biosystems (human, UniProt P32970 52-193, chemically biotinylated where the biotinylated form was used)
# T2 construct: also called human CD70-Fc-trimer; Bio.CD70
# T2 sequence: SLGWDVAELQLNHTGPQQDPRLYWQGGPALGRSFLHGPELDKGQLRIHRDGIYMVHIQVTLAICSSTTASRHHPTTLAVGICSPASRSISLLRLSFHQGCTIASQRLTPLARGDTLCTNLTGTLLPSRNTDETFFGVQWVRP
# Tests used:
# [1] = target: T3, Molm-13 N1 tumor cells (carrying CD123, CD33 and CD70) (human, UniProt P20138 18-364; P26951 19-378; P32970 1-193); assay: flow cytometry on Molm-13 N1 cells, 20 uM HSA
# T3 construct: whole, on cells; Not a complex: three separate antigens on one cell; also called Molm-13 N1 cells
# T3 sequence (P20138 18-364, one chain of several): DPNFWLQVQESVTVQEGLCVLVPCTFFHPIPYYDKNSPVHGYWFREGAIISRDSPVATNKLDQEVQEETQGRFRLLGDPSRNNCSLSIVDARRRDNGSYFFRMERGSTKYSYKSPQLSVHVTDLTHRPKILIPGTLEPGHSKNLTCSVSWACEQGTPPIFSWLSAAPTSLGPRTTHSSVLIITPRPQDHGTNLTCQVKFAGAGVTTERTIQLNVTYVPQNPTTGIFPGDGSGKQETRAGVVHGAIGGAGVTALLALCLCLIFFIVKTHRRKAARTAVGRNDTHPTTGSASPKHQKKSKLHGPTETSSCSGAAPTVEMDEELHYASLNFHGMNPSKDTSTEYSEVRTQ
# Procedure: The determination of binding of several multispecific proteins to tumor cells was performed by Fluorescence Activated Cell Sorting (FACS) flow cytometry. Therefore, tumor cells (Molm-13 N1), were seeded at 100′000 cells per well in a 96 well plate. DARPin® protein #56, DARPin® protein #57, DARPin® protein #58, DARPin® protein #59, DARPin® protein #60, DARPin® protein #61 and DARPin® protein #62 were titrated down starting at 100 nM in 1:5 dilution ratio. Tumor cells were resuspended with diluted DARPin® proteins and incubated 60 minutes at 4° C. The assay was performed in PBS including 2% fetal bovine serum and human serum albumin 20 uM (HSA). After washing twice with Phosphate Buffer saline (PBS), DARPin® protein specific tumor cell binding was detected by adding unlabelled primary […] (anti-rabbit 1-1-1 antibody, CePower) at 2 ug/ml. An incubation step of at least 30 minutes at 4° C. followed. Afterwards, cells were washed with PBS and a secondary anti-rabbit antibody labelled with Alexa Fluor 647 antibody (ThermoFisher) at 2 ug/ml was added. The same incubation conditions applied. Finally, the cells were washed twice and resuspended in Cytofix fixation buffer (BD Biosciences) for 15 min at room temperature (RT). Median fluorescence intensities (MFI) of Alexa Fluor 647 DARPin® labelled cells were measured by Attune NxT (Thermo Fisher) using FlowJo software for analyses and GraphPad Prism 8 for data plotting.
# [2] = target: T4, biotinylated extracellular domain of human CD33 (SEQ ID NO: 87), Fc and Avi tagged (human, UniProt P20138 18-259, biotinylated with BirA-GST (Avi tag)); assay: SPR (ProteOn XPR36), target on GLC chip, DARPin as analyte
# T4 construct: also called hCD33; human target hCD33
# T4 sequence (P20138 18-259 R69G): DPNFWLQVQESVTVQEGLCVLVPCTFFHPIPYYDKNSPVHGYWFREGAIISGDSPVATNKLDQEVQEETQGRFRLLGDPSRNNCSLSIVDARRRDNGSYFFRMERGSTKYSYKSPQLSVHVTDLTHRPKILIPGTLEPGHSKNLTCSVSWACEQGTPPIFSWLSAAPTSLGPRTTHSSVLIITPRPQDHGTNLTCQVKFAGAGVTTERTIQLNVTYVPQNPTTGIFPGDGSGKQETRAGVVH
# From the text: (§1) For that, DARPin® protein #27, DARPin® protein #29, DARPin® protein #47 and DARPin® protein #48 and DARPin® protein #49, DARPin® protein #50, DARPin® protein #51, DARPin® protein #52, DARPin® protein #31, DARPin® protein #53, DARPin® protein #54, DARPin® protein #55, DARPin® protein #34, DARPin® protein #33, DARPin® protein #39 and DARPin® protein #36 were subcloned and expressed as described above into derivatives of the pQE30 (Qiagen) expression vector, containing an N-terminal His-tag, CD33, CD123 and/or CD70 binding ankyrin repeat domains, followed by a CD3 specific ankyrin repeat domain and for some constructs by a human serum albumin specific ankyrin repeat domain.
# (§2) Briefly, biotinylated human CD70, CD123 and CD33 was diluted in PBST (PBS, pH 7.4 containing 0.005% Tween 20®) and coated on a GLC chip (BioRad) to a level of around 200, 460 and 450 resonance units (RU) respectively. HSA in NaOAc pH 5.0 was directly immobilized on the GLC chip to a level of 800 RU. Bio.CD70, bio. CD33 and bio. CD123 required to have Neutravidin coated first to a level of 6000 RU before the biotinylated targets could be applied. The interaction of the selected ankyrin repeat proteins and human CD70, CD123 and CD33 was then measured by injecting 300 μl running buffer (PBS, pH 7.4 containing 0.005% Tween 20®) containing serial dilutions of ankyrin repeat proteins covering a concentration range between 100 nM and 2.6 nM (100, 40, 16, 6.4 and 2.6 nM respectively) for multi-trace SPR measurements, with an association of 120 s and dissociation of 1200 s using a constant flow of 100 μl/min. The regeneration was performed using 30 μl of 4 mM Glycine pH 2. The signals (i.e. resonance unit (RU) values) of the interspots and a reference injection (i.e. injection of running buffer only) were subtracted from the RU traces obtained after injection of ankyrin repeat protein (double-referencing).
# [3] = target: T5, human serum albumin (human, UniProt P02768 25-609); assay: as above
# T5 construct: also called HSA; SA
# T5 sequence (P02768 25-609 limits assumed): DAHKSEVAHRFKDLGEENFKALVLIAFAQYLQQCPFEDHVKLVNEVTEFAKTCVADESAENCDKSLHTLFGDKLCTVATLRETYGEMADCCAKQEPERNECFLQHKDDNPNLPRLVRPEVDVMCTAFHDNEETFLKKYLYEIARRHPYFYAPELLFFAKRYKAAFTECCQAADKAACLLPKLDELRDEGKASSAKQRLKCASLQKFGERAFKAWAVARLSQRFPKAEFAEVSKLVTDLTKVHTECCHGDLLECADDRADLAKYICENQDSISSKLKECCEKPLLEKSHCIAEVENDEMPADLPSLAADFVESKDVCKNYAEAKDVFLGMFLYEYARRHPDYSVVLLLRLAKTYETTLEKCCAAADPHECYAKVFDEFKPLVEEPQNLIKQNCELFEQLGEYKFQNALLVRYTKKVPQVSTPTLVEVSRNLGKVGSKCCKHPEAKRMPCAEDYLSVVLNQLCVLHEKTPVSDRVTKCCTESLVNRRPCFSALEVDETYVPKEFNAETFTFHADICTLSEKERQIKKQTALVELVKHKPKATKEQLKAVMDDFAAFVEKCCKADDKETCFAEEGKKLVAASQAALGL
# From the text: as §1, §2
# [4] = target: T1, biotinylated extracellular domain of …; assay: as above
# From the text: as §1, §2
# [5] = target: T2, extracellular domain of human CD70 (SEQ …); assay: as above
# From the text: as §1, §2
Binder,EC50 [1] [nM],Kd [2] [nM],Kd [3] [nM],Kd [4] [nM],Kd [5] [nM]
"DARPin® protein #58 (designed binder, HSA-HSA-CD70-CD123-CD33-CD3) DLGKKLLEAARAGQDDEVRELLKAGADVNAKDYFSHTPLHLAARNGHLKIVEVLLKAGADVNAKDFAGKTPLHLAAADGHLEIVEVLLKAGADVNAQDIFGKTPADIAADAGHEDIAEVLQKAAGSPTPTPTTPTPTPTTPTPTPTGSDLGKKLLEAARAGQDDEVRELLKAGADVNAKDYFSHTPLHLAARNGHLKIVEVLLKAGADVNAKDFAGKTPLHLAAADGHLEIVEVLLKAGADVNAQDIFGKTPADIAADAGHEDIAEVLQKAAGSPTPTPTTPTPTPTTPTPTPTGSDLGIKLLTAAYDGQLDEVRILLKAGADVNAKDLRGQTPLHYAAGLGHLEIVEVLLKAGADVNAKDLHGWTPLHLAAWSGHLEIVEVLLKAGADVNAQDVEGVTPADLAAVQGHQDIAEVLQKAAGSPTPTPTTPTPTPTTPTPTPTGSDLGWKLLDAAEIGQLDEVRILLKAGADVNAKDKQGITPLHIAAAHGHLEIVEVLLKAGADVNAKDEIGRTPLHLAAFKGHLEIVEVLLKAGADVNAQDIIGETPADLAAVRGHQDIAEVLQKAAGSPTPTPTTPTPTPTTPTPTPTGSDLGVKLLLAAERGQLDEVRILLKAGADVNAKDIAEGYTPLHIAAYQGHLEIVEVLLKAGADVNAKDRYGKTPLHLAAIGGHLEIVEVLLKAGADVNAQDNKGSTPADLAADYGHQDIAEVLQKAAGSPTGSDLGQKLLEAAWAGQDDEVRELLKAGADVNAKNSRGWTPLHTAAQTGHLEIFEVLLKAGADVNAKNDKRVTPLHLAAALGHLEIVEVLLKAGADVNARDSWGTTPADLAAKYGHQDIAEVLQKAA",0.17,,,,
"DARPin® protein #55 (designed binder, CD70-CD123-CD33-CD3-HSA) MRGSHHHHHHDLGYKLLQAAYDGQLDEVRILLKAGADVNAKDSRGQTPLHYAASIGHLEIVEVLLKAGADVNAKDDHGWTPLHLAAWSGHLEIVEVLLKAGADVNAQDQEGTTPADLAAVQGHQDIAEVLQKAAGSPTPTPTTPTPTPTTPTPTPTGSDLGKKLLEAALEGQLDEVRELLKAGADVNAKDQEGYTPLHLAAALGHLEIVEVLLKAGADVNAKDSIGRTPLHLAAYKGHLEIVEVLLKAGADVNAQDLLGETPADLAAEQGHQDIAEVLQKAAGSPTPTPTTPTPTPTTPTPTPTGSDLGVKLLRAAVHGQLDEVRILLKAGADVNAKDTDGETPLHYAAQFGHLEIVEVLLKAGADVNAKDAYGATPLHWAAWHGHLEIVEVLLKAGADVNAQDVSGATPADLAAKVGHQDIAEVLQKAAGSPTPTPTTPTPTPTTPTPTPTGSDLGQKLLEAAWAGQDDEVRELLKAGADVNAKNSRGWTPLHTAAQTGHLEIFEVLLKAGADVNAKDDKGVTPLHLAAALGHLEIVEVLLKAGADVNAQDSWGTTPADLAAKYGHEDIAEVLQKAAGSPTPTPTTPTPTPTTPTPTPTGSDLGKKLLEAARAGQDDEVRELLKAGADVNAKDYFSHTPLHLAARNGHLKIVEVLLKAGADVNAKDFAGKTPLHLAAADGHLEIVEVLLKAGADVNAQDIFGKTPADIAADAGHEDIAEVLQKAA",,9.6,7.5,13,0.38

# The remaining lines, values ahead:
EC50 [1] [nM],Kd [2] [nM],Kd [3] [nM],Kd [4] [nM],Kd [5] [nM],Binder
0.19,,,,,"DARPin® protein #59 (designed binder, HSA-HSA-CD70-CD123-CD33-CD3) DLGKKLLEAARAGQDDEVRELLKAGADVNAKDYFSHTPLHLAARNGHLKIVEVLLKAGADVNAKDFAGKTPLHLAAADGHLEIVEVLLKAGADVNAQDIFGKTPADIAADAGHEDIAEVLQKAAGSPTPTPTTPTPTPTTPTPTPTGSDLGKKLLEAARAGQDDEVRELLKAGADVNAKDYFSHTPLHLAARNGHLKIVEVLLKAGADVNAKDFAGKTPLHLAAADGHLEIVEVLLKAGADVNAQDIFGKTPADIAADAGHEDIAEVLQKAAGSPTPTPTTPTPTPTTPTPTPTGSDLGIKLLTAAYDGQLDEVRILLKAGADVNAKDLRGQTPLHYAAGLGHLEIVEVLLKAGADVNAKDLHGWTPLHLAAWSGHLEIVEVLLKAGADVNAQDVEGVTPADLAAVQGHQDIAEVLQKAAGSPTPTPTTPTPTPTTPTPTPTGSDLGKKLLEAALEGQLDEVRELLKAGADVNAKDQEGYTPLHLAAALGHLEIVEVLLKAGADVNAKDQIGRTPLHLAAYKGHLEIVEVLLKAGADVNAQDIIGQTPADLAAQRGHQDIAEVLQKAAGSPTPTPTTPTPTPTTPTPTPTGSDLGVKLLLAAERGQLDEVRILLKAGADVNAKDIAEGYTPLHIAAYQGHLEIVEVLLKAGADVNAKDRYGKTPLHLAAIGGHLEIVEVLLKAGADVNAQDNKGSTPADLAADYGHQDIAEVLQKAAGSPTGSDLGQKLLEAAWAGQDDEVRELLKAGADVNAKNSRGWTPLHTAAQTGHLEIFEVLLKAGADVNAKNDKRVTPLHLAAALGHLEIVEVLLKAGADVNARDSWGTTPADLAAKYGHQDIAEVLQKAA"
0.16,,,,,"DARPin® protein #60 (designed binder, HSA-HSA-CD70-CD123-CD33-CD3) DLGKKLLEAARAGQDDEVRELLKAGADVNAKDYFSHTPLHLAARNGHLKIVEVLLKAGADVNAKDFAGKTPLHLAAADGHLEIVEVLLKAGADVNAQDIFGKTPADIAADAGHEDIAEVLQKAAGSPTPTPTTPTPTPTTPTPTPTGSDLGKKLLEAARAGQDDEVRELLKAGADVNAKDYFSHTPLHLAARNGHLKIVEVLLKAGADVNAKDFAGKTPLHLAAADGHLEIVEVLLKAGADVNAQDIFGKTPADIAADAGHEDIAEVLQKAAGSPTPTPTTPTPTPTTPTPTPTGSDLGIKLLTAAYDGQLDEVRILLKAGADVNAKDLRGQTPLHYAAGLGHLEIVEVLLKAGADVNAKDLHGWTPLHLAAWSGHLEIVEVLLKAGADVNAQDVEGVTPADLAAVQGHQDIAEVLQKAAGSPTPTPTTPTPTPTTPTPTPTGSDLGKKLLQAARAGQLDEVRELLKAGADVNAKDQYGRTPLHLAAIKGHLEIVEVLLKAGADVNAKDSLGYTPLHLAAVEGPLEIVEVLLKAGADVNAKDAYGQTPLHIAAAWGHLEIVEVLLKAVADVNAQDKSGKTPADLAARAGHQDIAEVLQKAAGSPTPTPTTPTPTPTTPTPTPTGSDLGVKLLLAAERGQLDEVRILLKAGADVNAKDIAEGYTPLHIAAYQGHLEIVEVLLKAGADVNAKDRYGKTPLHLAAIGGHLEIVEVLLKAGADVNAQDNKGSTPADLAADYGHQDIAEVLQKAAGSPTGSDLGQKLLEAAWAGQDDEVRELLKAGADVNAKNSRGWTPLHTAAQTGHLEIFEVLLKAGADVNAKNDKRVTPLHLAAALGHLEIVEVLLKAGADVNARDSWGTTPADLAAKYGHQDIAEVLQKAA"

# From patent publication US20240254229A1 (Molecular Partners, published 2024)
